Ends that are not written are not given here. Pep Spots Membrane = cellulose membrane (Jerini Biotools) to which the peptides are covalently attached at their C-termini as individual spots

Test [1] concerns the target recombinant soluble human 17-1A-antigen (human) (UniProt P16422). The test can be described thus: SPR (BIACORE 2000), s17-1A immobilized on CM5 chip, 2. set (internal reference). In general terms: SPR reads the build-up and loss of mass on a sensor chip optically.
Test [2] shares this target. The test can be described thus: SPR (BIACORE 2000), s17-1A immobilized on CM5 chip, 1. set.
For test [3], the target named is T1, recombinant soluble human 17-1A-antigen (human, UniProt P16422 24-265).
T1 construct: extracellular domain; also called s17-1A; soluble 17-1A-antigen
T1 sequence (looked up): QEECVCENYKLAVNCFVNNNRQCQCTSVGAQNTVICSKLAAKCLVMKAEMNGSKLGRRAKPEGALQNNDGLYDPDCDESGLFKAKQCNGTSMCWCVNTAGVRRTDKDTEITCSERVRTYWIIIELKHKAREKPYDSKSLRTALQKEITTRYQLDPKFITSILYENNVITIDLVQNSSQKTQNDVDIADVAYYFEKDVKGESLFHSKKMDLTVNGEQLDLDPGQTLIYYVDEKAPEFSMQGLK
The test is described as above. The procedure:
Surface plasmon resonance measurement was performed using the BIACORE 2000 device (Biacore AB, Freiburg, Freiburg, Germany). Immobilization of recombinant soluble 17-1A-antigen in each flow cell and analysis of the interaction was carried out with an automatic method in BIACORE 2000. The antigen was covalently coupled to sensor chip CM5 via primary amine groups. After activation of the carboxylated dextran matrix of CM5 sensor chip with a single injection of 80 μl of 0.1 M N-hydroxisuccinimide/0.4 M N-ethyl-N′-(3-dimethylaminopropyl)-carbodiimide (NHS/EDC9) through all four flow cells, flow cells 1,2,3 and 4 were successively included ito the flow path during injection of s17-1A-antigen (60 μg/ml in 10 mM sodium acetate, pH 4.7). Different contact times of 17-1A to the activated surface lead to approximately 2500 response units (RU9 in flow cell 1, […] in flow cell 2, 780 RU in flow cell 3 and 290 RU in flow cell 4). Excess activated esters were blocked by injection of 85 μl 1 M ethanolamine pH 5 over all four flow cells. Binding experiments were performed at 25° C. in buffer of pH 7.4 containing 10 mM Hepes, 150 mM NaCl, 3 mM EDTA and 0.005% surfactant P20. The binding kinetics of antibodies to immobilized recombinant 17-1A were determined by injecting antibody concentrations ranging from 0.5 to 2 μM. The sensor chip was regenerated between each run with 100 mM Glycin, 500 mM NaCl, 0.005% Tween pH3. The association and dissociation rate constants, Kon and Koff were analysed using BIA-evaluation software from Biacore AB as described (Karlsson, (1991) J Immunol Meth 145: 229-240). Two sets of affinity determinations were carried out (1.set: M79, H79, D7.2, Panorex; 2. set: Panorex, HD70); the murine Panorex was also included in set 2 as internal reference.

The next test addresses T2, 17-1A peptide 59 (human).
T2 construct: also called peptide spot 59
T2 peptide: ITCSERVRTYWII-{Pep Spots Membrane}
In words: peptide spot membrane, electrotransfer, anti-human secondary antibody, chemoluminescence. An excerpt: (§1) Due to a higher degree of crossreactivity of the secondary HRP-conjugated anti-human immunoglobulin antibody with several peptide spots, bound human antibodies H79 and HD70 were transfered from the Pep Spots Membrane to a blotting membrane, respectively, by means of electrotransfer and subsequently detected by said anti human secondary antibody and chemoluminescence. Specific binding of human antibody H79 could be detected mainly at peptide spots 8, 11, 13, 14, 59-60, 77 and 79; however, no binding was detectable in case of human antibody HD70.
(§2) The PepSpots Membrane with the synthesized peptides was shaken for ten minutes in methanol and then washed three times for ten minutes in TBS-buffer pH8. The membrane was then blocked in casein based blocking solution, containing 0.05 g/ml sucrose for one hour and then once shaken in TBS pH8/0.05%Tween 20 (TBS-T).
(§3) Each of the anti-17-1A antibodies was incubated at room temperature together with the membrane for three hours in blocking solution (1 μg antibody/ml). After three washes in TBS-T for ten minutes each, the horse radish peroxidase (HRP)-conjugated secondary antibody (anti mouse/anti human; 1 μg/ml blocking solution) was incubated for two hours at room temperature together with the membrane. Then the membrane was washed for three times in TBS-T for ten minutes each. Detection of bound antibodies was performed directly on the Pep Spots Membrane in case of M79 according to the protocol of the chemoluminescence kit manufacturer (Boehringer). The blot was regenerated after three washes with TBS-T (10 min.) in a solution containing 50 mM Tris-HCl pH 6.7, 100 mM 2-Mercaptoethanol and 2% (w/v) SDS for 30 min at 50° C. and subsequently reused for epitope mapping of the next antibody. Due to the higher degree of unspecific binding of the anti-human immunoglobulin secondary antibody to the polypeptide-spots on the membrane, a fractionated electrotransfer to a second blotting-membrane followed by detection with the anti-human secondary antibody was carried out in case of HD70 and H79 according to Rüdiger, EMBO 16 (1997) 1501-1507. Incubation with the secondary antibody and antibody detection on the blots was performed as described above.

The next test has as its target T3, 17-1A peptide 60 (human).
T3 construct: also called peptide spot 60
T3 peptide: CSERVRTYWIIIE-{Pep Spots Membrane}
The description is as above.
Excerpt: as §1, §2, §3

Another test deals with T4, 17-1A peptide 11 (human, cysteine pairing not given here).
T4 construct: also called peptide spot 11
T4 peptide: NCFVNNNRQCQCT-{Pep Spots Membrane}
Described as above.
Excerpt: as §1, §2, §3

For the next test, the target named is T5, 17-1A peptide 8 (human).
T5 construct: also called peptide spot 8
T5 peptide: NYKLAVNCFVNNN-{Pep Spots Membrane}
The test is described as above.
Excerpt: as §1, §2, §3

A further test addresses T6, 17-1A peptide 79 (human).
T6 construct: also called peptide spot 79
T6 peptide: RYQLDPKFITSIL-{Pep Spots Membrane}
The test is described as above.
Excerpt: as §1, §2, §3

Another test addresses T7, 17-1A peptide 14 (human, cysteine pairing not given here).
T7 construct: also called peptide spot 14
T7 peptide: NRQCQCTSVGAQN-{Pep Spots Membrane}
The test is described as above.
Excerpt: as §1, §2, §3

A further test deals with T8, 17-1A peptide 13 (human, cysteine pairing not given here).
T8 construct: also called peptide spot 13
T8 peptide: NNNRQCQCTSVGA-{Pep Spots Membrane}
The test is described as above.
Excerpt: as §1, §2, §3

Test [4] concerns the target T9, human 17-1A-antigen on cells (Kato gastric cancer cells, 17-1A-transfected CHO cells, colon tissue) (human, UniProt P16422 24-314).
T9 construct: whole, on cells; also called transmembrane 17-1A; CHO/17-1A
T9 sequence (looked up): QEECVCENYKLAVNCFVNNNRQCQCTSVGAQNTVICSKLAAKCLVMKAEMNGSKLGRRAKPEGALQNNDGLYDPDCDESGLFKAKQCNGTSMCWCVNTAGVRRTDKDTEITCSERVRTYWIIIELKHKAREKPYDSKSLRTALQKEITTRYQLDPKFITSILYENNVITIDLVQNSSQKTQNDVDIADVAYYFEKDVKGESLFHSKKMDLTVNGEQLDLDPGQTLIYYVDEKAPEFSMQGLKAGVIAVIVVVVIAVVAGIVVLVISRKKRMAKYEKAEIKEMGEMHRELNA
The test can be described thus: flow cytometry on Kato cells and 17-1A-transfected CHO cells, periplasma preparation. An excerpt: The test for binding of the two 17-1A positive human Fab-fragments (k8-D4.5-Fab and k5.1-D4.5-Fab) on Kato-cells (17-1A expressing gastric cancer cell-line), 17-1A transfected CHO-cells (CHO/17-1A) and non-transfected CHO-cells was again carried out with the periplasma preparations. CHO transfected cell-lines were generated by subcloning of a DNA-fragment encoding the complete amino acid sequence of the 17-1A-antigen also known as GA733-2 (Szala, Proc. Natl. Acad. Sci. U.S.A. 87 (1990), 3542-3546), into the eucaryotic expression vector pEF-DHFR (Mack, , Proc. Natl. Acad. Sci. U.S.A. 92 (1995) 7021-7025) according to standard procedures (Sambrook, Molecular Cloning; A Laboratory Manual, Second Edition, Cold Spring Harbour Laboratory Press, Cold Spring Harbour, N.Y. (1989)). The resulting plasmid was linearized with NdeI and transfected into DHFR-deficient CHO-cells for stable expression. The expression of transmembrane 17-1A was increased by stepwise gene amplification induced by subsequent addition of increasing concentrations of the DHFR-inhibitor Methotrexat (MTX) to a final concentration of 500 nM, with the concentration steps in between being 20 nM and 100 nM (Kaufmann, Methods Enzymol. 185 (1990), 537-566). […] Labeled cells were then analyzed by flow cytometry.

The target of test [5] is T1, recombinant soluble human 17-1A-antigen. In words: ELISA of periplasma Fab preparations on immobilized s17-1A. The procedure:
As previously mentioned in example I, E. coli XL1 Blue transformed with pComb3H containing one light and the Fd-segment of one heavy chain produce soluble Fab in sufficient amounts after excision of the gene III fragment and induction with IPTG. The heavy chain Fd-segment and the light chain are exported into the periplasma where they assemble and form functional Fab-fragments. For better periplasma preparations the cells were grown in SB-medium supplemented with 20 mM MgCl₂ and are redissolved in PBS after harvesting. By four rounds of freezing at −70° C. and thawing at 37° C., the outer membrane of the bacteria was destroyed by temperature shock and the soluble periplasmatic proteins including the Fab fragments were released into the supernatant. After elimination of intact cells and cell-debris by centrifugation, the supernatants containing the Fab-antibody-fragments were collected and used for further examination. […]
Detection of k8-D4.5 and k5.1-D4.5-Fab-fragments bound to immobilized s17-1A anigen was carried out using a polyclonal biotinylated anti-human-kappa light chain antibody (1 μg/ml PBS) detected with horse raddish conjugated Avidine (1 μg/ml PBS). The signal was developed by adding a substrate solution, containing 2,2′Azino-bis(3-Ethylbenz-Thiazoline-6-Sulfonic Acid) and Na-perborate and detected at a wavelength of 405 nm.
(ELISA stands for enzyme-linked immunosorbent assay.)

B1: Panorex (antibody, INN chains, looked up, V domains shown)
VH: QVQLQQSGAELVRPGTSVKVSCKASGYAFTNYLIEWVKQRPGQGLEWIGVINPGSGGTNYNEKFKGKATLTADKSSSTAYMQLSSLTSDDSAVYFCARDGPWFAYWGQGTLVTVSA
VL: NIVMTQSPKSMSMSVGERVTLTCKASENVVTYVSWYQQKPEQSPKLLIYGASNRYTGVPDRFTGSGSATDFTLTISSVQAEDLADYHCGQGYSYPYTFGGGTKLEIK
For B1, in [1], the Kd (in general, a measure of binding affinity in units of concentration) was found to be 270 nM; the koff (in general, a measure of how fast the partners let go of each other) is 0.027 s⁻¹; the kon (usually the second-order rate constant of association) amounted to 100000 M⁻¹ s⁻¹. Also, in test [2], the Kd was found to be 200 nM, the koff amounted to 0.022 s⁻¹ and the kon was 110000 M⁻¹ s⁻¹.

B2: H79-huIgG1 (VD4.5huIgG1-k8) (antibody, V domains shown)
VH: EVQLLESGGGVVQPGRSLRLSCAASGFTFSSYGMHWVRQAPGKGLEWVAVISYDGSNKYYADSVKGRFTISRDNSKNTLYLQMNSLRAEDTAVYYCAKDMGWGSGWRPYYYYGMDVWGQGTTVTVSS
VL: ELQMTQSPSSLSASVGDRVTITCRTSQSISSYLNWYQQKPGQPPKLLIYWASTRESGVPDRFSGSGSGTDFTLTISSLQPEDSATYYCQQSYDIPYTFGQGTKLEIK
notes: Complete antibody produced in CHO cells; also called H79 human IgG1; human H79
As to B2, the Kd in test [3] amounted to 340 nM. Also, in test [3], the koff came out at 0.0072 s⁻¹. The kon in [3] is 21000 M⁻¹ s⁻¹. Moreover, the binding result with 17-1A peptide 59, with 17-1A peptide 60, with 17-1A peptide 11, with 17-1A peptide 8, with 17-1A peptide 79 and with 17-1A peptide 14 was “binds” in each case. For the same molecule, the binding result in the test with 17-1A peptide 13 is on record as “binds”.

B3: k5.1-D4.5-Fab (Fab, V domains shown)
VH: B2 VH
VL: ELQMTQSPSSLSASVGDRVTITCRASQSISSYLNWYQQKPGQPPKLLIYWASTRESGVPDRFSGSESGTNYTLTISSLQPEDFATYFCQQSDSLPITFGQGTRLDIQ
notes: Soluble Fab tested as an E. coli periplasma preparation
B3: the binding result in test [4] and in [5] was “binds” throughout.

These data come from patent US20030148463A1 (published 2003).
